Results published in patent US11155577B2, “Thiol-ene based peptide stapling and uses thereof” (University of Utah Research Foundation, priority 2015, dated 2021).
Bridge positions count the residues as written; N and C are the ends. Square brackets hold non-standard residues; d marks the D form. S5 = C=CCCC[C@](C)(N)C(=O)O; Ae = not defined here

Columns and labels:
[1] = Circular dichroism (CD) evaluation of alpha helicity; assay type: physicochemical; conditions: in water, 25° C., 100 μM peptide
Experimental: All CD spectra were recorded on an AVIV Model 410 spectrophotometer (AVIV) in water in a 1 mm QS quartz cuvette (Stama) at 25° C. Wavelength scans were performed at 1-nm resolution with 1-s averaging time. Data from double scans were averaged, blank subtracted, and normalized to mean residue ellipticity by the following equation; [θ]=100×θ/C×l×(n−1), where C is concentration of protein in mM, l is path length in centimeters, and n is the number of residues in the protein. The concentrations of the protein samples used for CD experiments were 100 μM. The percentage helicity was calculated from the […] at 222 nm using helical models as previously reported (Y. H. Chen, J. T. Yang, K. H. Chau. Biochemistry 1974, 13, 3350-3359).

[2] = tested on: p53-null HCT-116 colorectal carcinoma cells; test: Cell-viability assay (CellTiter Glo), HCT-116 p53 null; assay type: cell-based; conditions: 24-hour incubation
Experimental: (§1) Both HCT-116 cell lines, i.e., HCT-116 p53 wild-type and HCT-116 p53 null, were obtained from Dr. Trudy Oliver (University of Utah). Cell lines were cultured in 10% FBS media (DMEM, Pen/Strep). Briefly. 20,000 cells/well in 1% FBS media were seeded in 96-well plates. After 24 hours, stapled peptides with various concentrations were added to each well. After another 24-hour incubation, media were aspirated and CellTiter Glo reagent was added according to the protocol from Promega. Luminescence signal was measured by automatic plate reader (BioTek Synergy Neo).

[3] = tested on: p53 wild-type HCT-116 colorectal carcinoma cells; test: Cell-viability assay (CellTiter Glo), HCT-116 p53 wild-type; assay type: cell-based; conditions: 24-hour incubation
Experimental: as §1

[4] = tested on: p53 wild-type HCT-116 colorectal carcinoma cells; conditions: F. Bernal et al., Cancer Cell 2010; cited from earlier work
[5] = tested on: p53-null HCT-116 colorectal carcinoma cells; conditions: F. Bernal et al., Cancer Cell 2010; cited from earlier work
[6] = biological target: T1, p53-MDM2 interaction (Homo sapiens, UniProt Q00987); test: ELISA assay for p53-MDM2 interactions; assay type: binding; conditions: 1-hour incubation with p53-MDM2 protein complexes
T1 construct: purchased Enzo Life Sciences
T1 sequence (Q00987 whole entry): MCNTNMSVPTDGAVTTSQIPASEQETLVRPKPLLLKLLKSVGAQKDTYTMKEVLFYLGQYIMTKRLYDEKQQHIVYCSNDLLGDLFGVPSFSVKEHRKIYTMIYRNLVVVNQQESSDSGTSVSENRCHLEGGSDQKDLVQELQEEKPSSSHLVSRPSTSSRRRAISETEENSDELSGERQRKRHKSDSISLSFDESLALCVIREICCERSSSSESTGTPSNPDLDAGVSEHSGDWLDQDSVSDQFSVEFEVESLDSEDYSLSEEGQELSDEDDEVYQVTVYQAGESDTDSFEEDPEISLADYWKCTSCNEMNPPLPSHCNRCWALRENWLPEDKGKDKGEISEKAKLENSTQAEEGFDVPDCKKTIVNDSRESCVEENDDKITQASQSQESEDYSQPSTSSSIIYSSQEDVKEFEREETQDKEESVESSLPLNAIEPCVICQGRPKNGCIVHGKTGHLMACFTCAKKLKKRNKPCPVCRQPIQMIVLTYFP
Experimental: The ELISA kit was purchased from Enzo Life Sciences (New York, USA). TMB substrate was purchased from Cell Signaling Technology (Massachusetts. USA). The assay was performed according to the manufacture's protocol. Briefly, p53 antibody was coated on a 96-well plate overnight. After the coating, peptides and p53-MDM2 protein complexes were diluted in assay buffer and added to the wells. After 1-hour incubation, all wells were washed and detection antibody was added. After another 1-hour incubation, SA-HRP was added and incubated for 30 minutes before TMB substrate was added. 1N HCl was then added to stop the color development and the signal was measure using automatic plate reader (BioTek Synergy Neo).

## Ac-Gln-Ser-Gln-Gln-Thr-Phe-R8-Asn-Leu-Trp-Arg-Leu-Leu-S5-Gln-Asn-NH2 [Peptide 12]
[1]
  alpha helicity (CD spectra): significant increase of alpha helicity compared to the unstapled peptide 13
[2]
  induction of apoptosis / cell viability in p53 null cells: not p53 null cells
[3]
  induction of apoptosis / cell viability in p53 wild-type cells: induction of apoptosis in p53 wild-type cells
[4]
  induction of cell apoptosis in p53 wild-type cells (previously reported): selectively induces cell apoptosis in p53 wild-type cells
[5]
  induction of cell apoptosis in p53 null cells (previously reported): not p53 null cells

## Ac-Glu-Asn-Pro-GLu-S5-Ile-Leu-Asp-S5-His-Val-Gln-Arg-Val-Met-NH2 (Ac-ENPE[S5]ILD[S5]HVQRVM-NH2; staple 5-9; SMILES CC[C@H](C)[C@@H]1NC(=O)[C@@](C)(NC(=O)[C@H](CCC(=O)O)NC(=O)[C@@H]2CCCN2C(=O)[C@H](CC(N)=O)NC(=O)[C@H](CCC(=O)O)NC(C)=O)CCCC=CCCC[C@@](C)(C(=O)N[C@@H](Cc2c[nH]cn2)C(=O)N[C@H](C(=O)N[C@@H](CCC(N)=O)C(=O)N[C@@H](CCCNC(=N)N)C(=O)N[C@H](C(=O)N[C@@H](CCSC)C(N)=O)C(C)C)C(C)C)NC(=O)[C@H](CC(=O)O)NC(=O)[C@H](CC(C)C)NC1=O) [Peptide 9]
[1]
  alpha helicity (CD spectra): strong alpha-helical characteristics

## Ac-Glu-Asn-Pro-Glu-Cys-Ile-Leu-Asp-Cys-His-Val-Gln-Arg-Val-Met-NH2 (Ac-ENPECILDCHVQRVM-NH2; cysteine pairing not given here) [Peptide 10, unstapled axin homologue with 2 Cys residues]
[1]
  alpha helicity (CD spectra): low alpha-helical property

## Ae-Gln-Ser-Gln-Gln-Thr-Phe-Cys-Asn-Leu-Trp-Arg-Leu-Leu-Cys-Gln-Asn-NH2 (Ae-QSQQTFCNLWRLLCQN-NH2; not fully specified; printed as Ae-Gln-Ser-Gln-Gln-Thr-Phe-Cys-Asn-Leu-Trp-Arg-Leu-Leu-Cys-Gln-Asn-NH2; cysteine pairing not given here; reading uncertain) [Peptide 13, unstapled p53 homologue with 2 Cys residues]
[6]
  blocking of the p53-MDM2 interaction: did not block the p53-MDM2 interaction
